The supplement of paper PMC12636428

System: Saccharomyces cerevisiae
Assay: transcriptional activation domain activity (GFP:mCherry ratio, weighted mean of sorted bins, harmonized to initial dataset scale) (arbitrary fluorescence ratio units); higher = stronger transcriptional activation
Conditions: beta-estradiol 1 µM; induction time 4 h
Procedure, shortened: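 Yeast diploids with a GFP reporter received barcoded protein tiles, fused to an estradiol-inducible synthetic transcription factor, at the URA3 locus. Cultures were diluted 1:5 into SC holding 1 uM beta-estradiol, incubated 4 hours at 30 °C, sorted into 8 bins on GFP:mCherry ratio, and sequenced for barcodes, with tiles under 50 reads discarded. Activation activity values come from the read-weighted mean of bin median fluorescence, averaged across barcodes and linearly placed on the initial dataset scale.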

Row | Sequence | transcriptional activation domain activity
1 | KKAKAGDEDEEGGADKASPKKGAKRGRKQVEDEDEDESEEVQPKAKRAKKAVV | 24800
2 | KKAKKGGDEAGAKGSGKPKKPAGEADGSVAAEGGAAKGKARKAASSEPKKGAK | 27900
3 | KKASSSAVGEGKKKSASKPRTSSAGGASVDGQPKKPKQSKKKAASGSKGGAGS | 28500
4 | KKDEEQTSSSTPSPPPQESAEKNEAKDEEKPAEQKAKKKPKKLQVRSAGTPAP | 7630
5 | KKEAAAAKKEPAKRKKTKADEEDKESAEGTESDEESKPKKKKAAPKKKGAATA | 20600
6 | KKEEEGEESEPEKLPKSTKRGRKKVEEEVKAEGEEEEEEAPVAKKQKPAANGS | < 6570
7 | KKEEVKQEPAAPTPAPAPAPTGASSDRGGRGQGRGRARGDSSRGGGGRAAAPP | 38000
8 | KKEEVKQEPTPAAAPEASTSDRGRGRGRGRGEGRGRGDGTRGRGRGGARPAGP | 34900
9 | KKEGEDGKGKRKVVVYVGNAKFVTQREEGRDAFSASLASFDAQESAHGRTTIY | 75600
10 | KKEKAEKNKQQSKGQGQGEGDKEQKKEGEGEGEGGKDARAKGEKDGKDEKGAK | 46400
11 | KKEKSPSEDEAEKPKSPKSPFAKLRATVKGKSPKTEKPAEEPKAEAAPEAKTE | 24100
12 | KKEPVYDSEGNEVKPTPRKRVKKEPATEEDGSESKSASKKRVKKEADAEGDSS | 17100
13 | KKERKKEEKEEKGEKVKGKGERYVSDQVEEERERRRKRRNAKRQEREEEREKR | 42900
14 | KKGGKAAKSADRPPSRSRLEEEYVFIDVVSSFLRAIRARVIHIRHGAIVLAHY | 64100
15 | KKGREDMGNERKGNDMEGREGEKRGRKGKREGGGKGGKGGEKQREGRTGERGR | 21800
16 | KKGRRGRRRNRRGRKEGESEKGRKGGKGKGRKGEEQRRVRIKKGSRGTGEGEK | < 6570
17 | KKGRRKENGEGGEEKGKGAGGRGEGEEAGRRSRIKGVGGKRRGAGRRRGRREG | 17100
18 | KKGTIMTIASPSTVRRNMYDWLPSLFYFMPNSILGMWFDMTLPKLFFFLFLSQ | 63400
19 | KKKAAAEEDDEDDDEKVPAKKPAKRGRKKAADDEADEPQPPAKKAKKSPAKKT | 55800
20 | KKKEEGKKRKRKRGKGRGRREKEERRKRGKEKGRRKERGKGKKKKESWGWRKG | 42000
21 | KKKKRKKKTPSKGESEEKGDDEDDEDEKKQTPKANTGAKKTKATGKTDREKKE | 51500
22 | KKKRDNRREKPRKSRKGRSDDEIREGEEGESRRRKRKEGGGRARAATPQEENE | 32800
23 | KKKSKKRKEKKEKKRRSKSKKKGKKKRRSRSNSGSSSDSSSEDSSSSSSDSSD | 50500
24 | KKKSSGRKSGSKGVGRLGSGSEETDEDESSRGSGSEAGRSSKDKKGKSRSNVE | 39900
25 | KKKSSRKRDEEDKERSLRKHSRHHKSRRKRSRERSESPESSRHRHRHKKSSSS | 17600
26 | KKLHLESEEDAEYIVAKAIRDGVIEAQVNHERGEMTSRETGDVYSTNEPQAQL | < 6570
27 | KKLQNDILRPVDWIMYYYFASHIPITVLFDLQAIYPTNWVPQLLLDINAQYIN | 37500
28 | KKLTRGKGKKSKGKKARSNAKRSKGKGKVTKEDTSDEEDEEEGEEERGEEEEE | 12500

Row | Sequence | transcriptional activation domain activity
29 | KKNRHGKFAYSDRYNLSEYIIEQLSEYDDIDLVKPWHRKLMLLHPFVILWVFF | 60600
30 | KKPAAKAKAGPSKANGEAAANGKGEEKEQEKEEAPKEKFKAAKLADPAAPGSK | 31200
31 | KKPAAKKQKTAPAEKINTTDDSKKARGRPKKADSNGTAKAAQKKKEPKAAATA | 32900
32 | KKPPARLLAKKAPAAAAGGEEGSSKSAAKPAAPPVKKVVPAAAAAKPAKGGAP | 28400
33 | KKQEERKEGYRRKVEENKEKREGREKREKDEFWRREGKKRRYQEGDGAGAGAG | 38100
34 | KKREKKERSRRHRDDDGERRRRHRSRSRSRDRERRHRHRDRSRSRDRRRDDGR | 35200
35 | KKRGKRTTNGKESGRSSKKARAGSQPKPRTNARTANAAAEDDDDDDEEDDHEG | 46700
36 | KKRNAKRPKVESEGEDELADAKKEADDDEDESPKKVSKASSSPEAKVKQSSVS | 26200
37 | KKRRKKAKEGAERGKKKRKHTDDGAGVADGVDQRDSQRESDESSADEDGNSGK | 38300
38 | KKSDEKDDTKPKKKKAKHDDADKESKKKLKKASKEKKSKSTKSKKDTAENAIA | 42900
39 | KKSGTTSKDEKKEGDSDSKATPSSGESAAPSAANNEGGKKEEKSEEKKEEKEE | 41700
40 | KKSSTSSTAAPKKRTPAKKSTPAPTPSPSASPEPVKPKKTSSKKAAKPVAVAE | 25400
41 | KKSVLQLLAWLMHYKLYPTRNYKAICNCLPKLFENPLWAEFCSKMADTMVKYN | 46300
42 | KLAKKEPAAAKPKSEKPKAEKKTTEKKPVAKKATTTKKPAAAKPKAAPKPKTA | 27000
43 | KLAKKEPKAAAKPKTEKAKVEKKPAAKKATTTKAKPAAPKAKAAAKPKAATTK | 23800
44 | KLEHEPGPEPKPEAEEKPKKARGRPKKAIPEGGYTPKKARGRPKKVLDPEAEV | 14000
45 | KLEYVSLGRIEIVACFDKYTMASKGIHMLLGCCFSKIKFVCLSQADYQAAVLL | 67100
46 | KLFFNLSILTLCAIMTLSVVVAFLFVTGCDPFYGYRGILFGFRILLTDIFSNM | 31400
47 | KLGAAGGGRGSERDKRRRGEGERGGGDAVARAGEGEGRGRGRRRRKRSAACAG | 39200
48 | KLGFQVLVQVILVIWYKPDKIPSAVNVDKEIKKGEPVDNKARVLVECVLDVFQ | 51700
49 | KLGLGPTYGIMLALLVSHGIVCCFKTSILARLNVYYVILNLGTLIALSVALLV | 50600
50 | KLGPTPQCLDGFFFFSLLALASLHPVSPCLLFFFFFLLWFPSSFFWPSVLQVQ | 62500
51 | KLGVCLLLILDSLHTTFCIYAMYWYLVINFGVFPELAMMHWSFEAQQMLNVLV | 37800
52 | KLHQQAKSDFDELQESIPHQVGFSTPQLTAQQLIENAIESGVVDLETLDLPPF | 112000
53 | KLIFIFFFFYFFSFFVLLLLLLFLLLLFLPLLMATSACMLGLMFDKLPFFSNI | 46300
54 | KLIKHNKNVRTWWKKDDQFWVPRGHIHVYFRTPIIGITVRAQLTASLFINLVH | 47300
55 | KLIYVRILGYLLHHMPSEAGLQQLVTEIVSFRTEEAFLKLGLLYFEHAIRLFR | 36800
